The DeepSol protein solubility set

Experiment: soluble on expression in E. coli; label from the status in PepcDB or PDB records

Sequence	soluble on expression in E. coli
MKDLKLDEHTGLVLEGGGMRGVFTCGVLDYLMDHDIRFPYAIGVSAGACNGLSYASRQRGRAKFSNIDLLEKYNYIGLKHLLRKRNILDFDLLFNEFPEHILPYDYDTYFASPERFVMVTTNCMTGEANYFEEKRDKSRVIDIVRASSSLPFVCPVTYVDGVPMLDGGIVDSIPLQRAIADGYTRNVVILTRNRGYRKDTKDIRIPSFVYRKYPKLREALSRRCAVYNEQLEMVEQMEDEGKIIVIRPQKPVMVDRIERDVQKLTEFYEEGYDCARNLFEF	soluble
PITLVKDILSKPPITAHSNISIMEAAKILIKHNINHLPIVDEHGKLVGIITSWDIAKALAQNKKTIEEIMTRNVITAHEDEPVDHVAIKMSKYNISGVPVVDDYRRVVGIVTSEDISRLFGGKK	soluble
MGSDKIHHHHHHMNDPTFYRDGQGQPIQPDSAREAVAWLTQLMSDSVTEQDRREWQRWREASPDNEQAWQHIESVCANLGQLNARAAHQSLSTLNGMQRRSVLKALAILCLTGGAGMAGSRTDVWQSFTADYQTQVGEQRHAVLEDGTTLLLNTQTALNVAYGDDLRQLTLIRGEVMIETSQVEKAALYPRPFIVTTAQGKVQALGTRFSLRVQDEHTQVAVYDGAVRLHPQRNGQDVQVVKSGQTATFTTQRCGQIETEKAEPAWVKGQLLADNQRLVDFVDELSRYRSGVIRCQPEVESLRFSGVFPLSDTDNILAALAEALPVQVRYFSRYWVQIAAR	not soluble
MEILTLEQQKSFIKAIDGHKLEVLFLLALGTGLRLGELLGLKWFDIDFKKSNLTVKRTLQRTYFIDKTGNRELKVLEQGPKTSNSYRTVPIPKDVLNKLKEHKVNQNTDILKAGELYINNNYVFCNELGIPIDDKRPLRNLKSILNSLNIEPIKFHGLRKTYATRLFENDVPPKTVQVLMGHYDISITLNIYTQVMEDKKVEAVEKLDKIFSLEHHHHHH	soluble
MIDGIESGLGIAQAFPSVTGEAKPGNLAADGGKFFGELVSKVSELQAQSDTAIKGLVSGESKGLHEVMIAMEKSSISFQFLSQVRNKAVEAYQEVMRMQV	not soluble
LYPEEILDTHWELWKKTHRKQYNNKVDEISRRLIWEKNLKYISIHNLEASLGVHTYELAMNHLGDMTSEEVVQKMTGLKVPLSHSRSNDTLYIPEWEGRAPDSVDYRKKGYVTPVKNQGQCGSCWAFSSVGALEGQLKKKTGKLLNLSPQNLVDCVSENDGCGGGYMTNAFQYVQKNRGIDSEDAYPYVGQEESCMYNPTGKAAKCRGYREIPEGNEKALKRAVARVGPVSVAIDASLTSFQFYSKGVYYDESCNSDNLNHAVLAVGYGIQKGNKHWIIKNSWGENWGNKGYILMARNKNNACGIANLASFPKM	soluble
MAHHHHHHMQANLWLKGQTSTPLQRICDPVPNLLISQSSQGGQRALWLLHRPESVLGLVVSPQWQGESGDHELCDASVVSKRKIVRVMKHLHSLPFRVAGSSPLRPPMVVHKNHLVGWRIDGKAAPLYAHTLDQLAKLKPTQFKTIEPKNAFICRTYYEWDNWKEVSMEPGWTWHHVDEEIANNILDGTLTFDGLRATATDTP	soluble
MSLFIISQVFSPEGQRVLTMQFTKWFIALPLAVTALSGCSLLERLVYRIDINQGNYVDQQSVDQLKFGMSKDQVRFVLGSPMLVENGYPDTWYYIYHHTQGHNDPVQKNLIVKFNDGGKLVNVAGDFPAGDSFFEGVNEGHHHHHH	soluble
AHHHHHHGSRIVLAYSGGLDTSVILKLMQEKLGAEVITVTVDVGQKDDFEKIEEKAYKFGAVKHYYIDAKEEFAENYVCKAIKANALYENAYPLSTALARPLIVEKLVEVAKKEGAGIIAHGCTGKGNDQVRFNLGIKALMPEAEILQPVAEWNLTRDWEMEYAKKHGIPVSDKIYSIDENIWGRSIEGGVLEDPSIEPPEEVFEWTVSIEKAPDKPEYVTIGFENGVPVSLNGEKMKLLELILKLNEIAGKHGVGRIDHIEDRSVGIKSREVYEAPAAVTLIKAHQDLEKLTLTKWVIEFKSIVDSKWSWLVYNGLWYEPLRLALEGFIDEAEKAVNGEVTVKLWKGNAIVVGRKSDNALYDVKMATYEKFSTFDQKLAKGFIELFGMQSVLAYNMLHGVHSTSNISEIKEAIKTLE	soluble
GPGSMSAIPPPHYVRLRRYNLSIFVHCDVHNDTVQAIKERYGKLTGHIFYNARLYLGQQSLDDFLTLYGCGIEAEGAELVVVHSKGAKGDGTSEHIWETVEEAMAAPQGDSLNSPEVTAEGTAKLDSMEAAATSNEVGNQQQQQAADARGGTGAELNVGFVGV	soluble
MGSDKIHHHHHHMHLTQSTISQQLARLEESVGHSLIDRTARPLQLTASGEYLIGYAQRILTLQQEAEAVLKDPAGSIPIRIGLPEDMMSTAMAEVFGLFAQEHRTIRLDVTSGLSRNLTERYRNGELDIVIVKESAASADCYASFPEEMAWFESENAITPLSEPIRLVTFPQGGLYRDEMFETLERERRRWYIAFTGSSLESVLVSVETGLGISLLPVSTTKGRRVRRYKSLGEASPMVVSIYTWEKAGLISQLVDHMTTVLHDRFQSGS	not soluble
MGSDKIHHHHHHMYPFVDRKEELKALKERLTRENFELIVIYGRRRVGKTRLVLEAVRDLPHVYYLAVEGNNLRHFRETAERVFPEVRYSREDWEGTLHALKGKIIVIDEFPNLIKENPRVLSLFQRVIDLDLSNSNTKMILLGSSVSMMTEKVLSYKSPLYGRRTGSMKLKPMGFFSLRVFFPTASWEELVEIYGMTDGIPFYITQVKLPFWEWLEEELSSPVSFFRDEVDFLLKYEFSEVSTYKRILEAIALGKTTPKEIRDFTGLRHSDISPYLRNLIEADLIVREVPVTEKGTSKRGRYYIADNFLAFWFRFIFPNLSRIEEGTFSVEEIRDSYDHYLGLVFEKVARQFLVKLNKAGNLPFKFTKIGRWWHKNEEIDLVALNEREKRALFVEVKWKSLSGREARGILWDLERKSELVGLEGWEKHYGLVAKEIRNKNALKSEGWLVWDLGDFERLISPGEISYL	not soluble
EKKEQKEKEKKEQEIKKKFKLTGPIQVIHLAKACCDVKGGKNELSFKQGEQIEIIRITDNPEGKWLGRTARGSYGYIKTTAVEIDYDSLKLKKDLE	soluble
MGSDKIHHHHHHMNLWDKKAKTYARYQNTLNTIQKQTFEYLQNLKISFQDKSIIDIGCGTGVWTLHLAKEAKEILALDSANAMLEILQEDAKKLNLNNIKCKNLSFETWMQNNPNVKFDLAFLSMSPALQNEKDYTNFLNLAKIKIYLGWADYRKSDFLDPIFKYFNTEFKGFYKKDLENYLLEKNIFFHKIVFDETRKVQRTKEEAIENALWHLSMNKITASKETVSSFVENNITETIESKIKLLIINNL	not soluble
MVTNVEGDMNYCCKVDLKPWHFWNKKGYKSFDVEGNPVEVYWDFRSAKFTSSPEPSSDFYVALVSEEEVVLLVGDYKKKAFKRTKSRPALVEAALFYKKENVFGKKCFTTRAKFYDRKKEHEIIVESSTSGPKEPEMWISIDGIVLIQVKNLQWKFRGNQTVLVDKQPVQVFWDVYDWLFSMPGTGHGLFIFKPGTTEDSDMEGSGHGGGGGGESDTSTGSRYYSTKSSNPWPPEFCLFLHAYKLE	soluble
MWDTSKDYRLLVAEKSVELFIRTIEGAKFRGQWDKKRSIQLAKEMIPDIQALRYSYIDPEELVDTPQMKDLKEKAKGIIEALGGEDWHHKFLSQASREDREKVEEQVARIKFFLNTILNLDRRLKLGKINDPVIAVDIVVGEVMSVGKHPSADRLLVTNVNIGERAVTVVTNDLTVKEGNRVAVALLPPRNFFGIVSEGMFLGAGEGVLKNVKGEIGGLPKGIPLEALNETRNAVEAFLKG	soluble
SLHIDVNNALNRAELVHSALFHEVDAIDSFCADWAEWDDTYNFVLNRNMDYVESNLVDETFPTLNVNYIVYLDRNGEVVLAKGYDLENETAMNPSQPLIERFRELSARNDLDVKKGFLRFDNSIYAFSARPILRSDETGPYAGTLIFARIVDDSFIQSPSKIAGLSFKILPVPKEKSVKFVNESALLVEFPLEDYSGRVVGTIEFYAEREALG	soluble
MGSDKIHHHHHHMRNQILKKATVSIMLLLCINVSVADTSTSVSCAESGSASAYSRSGNSVSYSSVNCSSNNEQNAMTPAGIAVSKSYSPEPYTSLVLSGAFNTEIKTSSENRVIISGDSNYVESVEVNSSDGELIIRRPGPGNDNLNVIVESISLQKLKISGAGSTNIYGDFPDGLSVRKSGAGSINIEGQASTLKLNLSGAGNTTARDFTVDNVEIDATGAGNIAVCAKKSVAGSLAGAVHFKVYCNPSQRSVNTRGVSRVSYR	not soluble
MITCGQVSSSLAPCIPYVRGGGAVPPACCNGIRNVNNLARTTPDRQAACNCLKQLSASVPGVNPNNAAALPGKCGVSIPYKISASTNCATVK	soluble
MSMPATLTKTTKLATSLIDEYALLGWRAMLTEVNLSPKPGLVDRINCGAHKDMALEDFHRSALAIQGWLPRFIEFGACSAEMAPEAVLHGLRPIGMACEGDMFRATAGVNTHKGSIFSLGLLCAAIGRLLQLNQLLTPTTVCSTAASFCRGLTDRELRTNNSQLTAGQRLYQQLGLTGARGEAEAGYPLVINHALPHYLTLLDQGLDPELALLDTLLLLMAINGDTNVASRGGEGGLRWLQREAQTLLQKGGIRTPADLDYLRQFDRECIERNLSPGGSADLLILTWFLAQI	soluble
MPQDVDFHIPLPGRQSPDHARAEAEQLAWPRSLGLIRSDAAAERHLRGGYADLASRFYPHATGADLDLGVDLMSWFFLFDDLFDGPRGENPEDTKQLTDQVAAALDGPLPDTAPPIAHGFADIWRRTCEGMTPAWCARSARHWRNYFDGYVDEAESRFWNAPCDSAAQYLAMRRHTIGVQPTVDLAERAGRFEVPHRVFDSAVMSAMLQIAVDVNLLLNDIASLEKEEARGEQNNMVMILRREHGWSKSRSVSHMQNEVRARLEQYLLLESCLPKVGEIYQLDTAEREALERYRTDAVRTVIRGSYDWHRSSGRYDAEFALAAGAQGYLEELGSSAH	soluble
MAHHHHHHMNGELNIGAGRVIFYRTIAKQNRNTLPLWTLQRHLYAYHPYVWFAIASASNAEAMEKLAERLGMKLVQDATTSYKISIRRSSELLDGELNAQLQCTKMNRPWDRFLITHYVRSQMPDLRFLVRARHPIKKRVTDAYLEADILRSTRDSVQSVLSPELGEVCYCCERVIRKWAMRTQTGVTLQLVETRRTPLIITKAGDEGERLEYEWIVVLPQKAERIDIAALSAELWDYGNVLARELEPGMEEFLSHTMTAAASY	not soluble
MSLSQNNPLRALLDKQDILLLDGAMATELEARGCNLADSLWSAKVLVENPELIREVHLDYYRAGAQCAITASYQATPAGFAARGLDEAQSKALIGKSVELARKAREAYLAENPQAGTLLVAGSVGPYGAYLADGSEYRGDYHCSVEAFQAFHRPRVEALLDAGADLLACETLPNFSEIEALAELLTAYPRARAWFSFTLRDSEHLSDGTPLRDVVALLAGYPQVVALGINCIALENTTAALQHLHGLTVLPLVVYPNSGEHYDAVSKTWHHHGEHCAQLADYLPQWQAAGARLIGGCCRTTPADIAALKARSEGGSHHHHHH	soluble
MFKSLSQLFRPRVEALGLEIGASALKLVEVSGNPPALKALASRPTPPGLLMEGMVAEPAALAQEIKELLLEARTRKRYVVTALSNLAVILRPIQVPKMPLKEMEEAVRWEAERYIPFPIDEVVLDFAPLTPLSEVQEGEQVQVMVAAARQEAVAGVLEALRGAGLVPVVLDVKPFAGLYPLEARLAEEPDRVFLALDIGAESTSLVLLRGDKPLAVRVLTLSGKDFTEAIARSFNLDLLAAEEVKRTYGMATLPTEDEELLLDFDAERERYSPGRIYDAIRPVLVELTQELRRSLEFFRIQLEEASPEVGYLLGGGSKLRGLASLLTDTLGVNFEPVNPWEAVAVDPKRFESEQLQEIGPEFAVALGLALRGVEPLD	soluble
